Laboratory results from patent CN111635459A (BEIJING GUANGWEI BIOTECHNOLOGY CO LTD, dated 2020).

What was measured:
U937细胞表面的CD47 = biological target: T1, U937细胞表面的CD47 (human, UniProt Q08722 19-323); assay: flow cytometry on U937 cells, blocking of FITC-SIRPα (100 ng/mL) binding to cell-surface CD47; antibody 0.03-50 μg/mL
T1 construct: whole, on cells; also called CD47 on U937 cells

人CD47抗原蛋白 = biological target: T2, 人CD47抗原蛋白 (human, UniProt Q08722 19-139, limits assumed); assay: SPR (Biacore 3000), antibody captured by anti-human Fc on CM5 chip, CD47 antigen 200-3.125 nM as analyte
T2 construct: The construct is not described; also called CD47蛋白
T2 sequence (Q08722 19-139 limits assumed): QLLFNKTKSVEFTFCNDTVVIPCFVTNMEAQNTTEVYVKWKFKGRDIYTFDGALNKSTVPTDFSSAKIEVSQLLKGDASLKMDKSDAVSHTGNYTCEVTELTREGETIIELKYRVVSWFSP

T1 sequence (Q08722 19-323): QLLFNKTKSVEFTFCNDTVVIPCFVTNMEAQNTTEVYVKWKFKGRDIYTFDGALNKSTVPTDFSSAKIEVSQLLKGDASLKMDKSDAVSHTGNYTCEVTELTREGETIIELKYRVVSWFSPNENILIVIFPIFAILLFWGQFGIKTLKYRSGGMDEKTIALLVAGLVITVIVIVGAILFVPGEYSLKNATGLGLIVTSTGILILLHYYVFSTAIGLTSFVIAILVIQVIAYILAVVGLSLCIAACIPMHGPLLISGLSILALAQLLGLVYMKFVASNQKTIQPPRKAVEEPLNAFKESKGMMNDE

B1: 对照抗体W3452-1.164.16-z11 (antibody, V domains shown)
VH: QVQLQESGPGLVKPSETLSLTCTVSGFSLTNYHVYWIRQPPGKGLEWIGVMWNHGDTSYNSPLKSRVTISVDTSKSQFSLKLSSVTAADTAVYYCARGGYVPDYWGQGTMVTVSS
VL: DIVMTQSPLSLPVTPGEPASISCRSSQSLVHSNAKTYLHWYLQKPGQSPQLLIYRVSNRFSGVPDRFSGSGSGTDFTLKISRVEAEDVGVYYCLQTTHFPYTFGQGTKLEIK
U937细胞表面的CD47
  IC50: 1.37 µg/mL
人CD47抗原蛋白
  Kd: 0.0934 nM
  koff: 3.84e-05 s⁻¹
  kon: 411000 M⁻¹ s⁻¹
